This passage reports protein binding (% bound to plasma proteins) results from US20190092858A1.

For the experiment, the target named is plasma proteins (fresh human plasma). Kind of experiment: size exclusion chromatography (Sephadex G-50 spin columns) with gamma counting, after incubation in fresh human plasma at 37 C for up to 4 h. In general terms: Size exclusion chromatography separates by hydrodynamic size, large species first.

On to “99mTc-HYNIC-P8RI (obtained with tricine/EDDA as coligands) (peptide)”, for which the protein binding (% bound to plasma proteins) is below 5%.
